Measured values published in patent US20080050375A1 (Eli Lilly, published 2008).
Blank lines part the entries; values can stand above or below the binder they belong to.

Tests used:
[1] = molecular target: human TGF-beta 1 (R&D Systems, Cat # 240-B/CF) (human) (UniProt P01137); assay: Biacore SPR, calculated koff/kon
[2] = molecular target: human TGF-beta 1 (R&D Systems, Cat # 240-B/CF) (human) (UniProt P01137); assay: cell-based or functional assay
[3] = molecular target: T1, human TGF-beta 3 (RDI, Cat # RDI-1036/CF) (human) (UniProt P10600); assay: Biacore SPR, equilibrium fit, mAb captured on Protein A, TGF-β3 injected
T1 sequence (looked up): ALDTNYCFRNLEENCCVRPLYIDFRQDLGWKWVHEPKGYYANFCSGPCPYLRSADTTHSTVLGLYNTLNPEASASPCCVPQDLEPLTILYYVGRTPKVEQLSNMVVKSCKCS

[4] = molecular target: human TGF-beta 1 (R&D Systems, Cat # 240-B/CF) (human) (UniProt P01137); assay: Biacore SPR, mAb captured on Protein A, TGF-beta 1 injected
[5] = molecular target: human TGF-beta 1 (R&D Systems, Cat # 240-B/CF) (human) (UniProt P01137); assay: Biacore SPR, mAb captured on Protein A, 5 nM ligand injected; stoichiometry from captured signals
latent TGF-beta 1 = molecular target: T2, latent TGF-beta 1 (UniProt P01137 30-390, limits assumed); assay: as above
T2 construct: Latent complex (pro-peptide with mature TGF-beta 1); also called Latent TGF-β1; latent form of TGF-beta 1
T2 sequence (P01137 30-390 limits assumed): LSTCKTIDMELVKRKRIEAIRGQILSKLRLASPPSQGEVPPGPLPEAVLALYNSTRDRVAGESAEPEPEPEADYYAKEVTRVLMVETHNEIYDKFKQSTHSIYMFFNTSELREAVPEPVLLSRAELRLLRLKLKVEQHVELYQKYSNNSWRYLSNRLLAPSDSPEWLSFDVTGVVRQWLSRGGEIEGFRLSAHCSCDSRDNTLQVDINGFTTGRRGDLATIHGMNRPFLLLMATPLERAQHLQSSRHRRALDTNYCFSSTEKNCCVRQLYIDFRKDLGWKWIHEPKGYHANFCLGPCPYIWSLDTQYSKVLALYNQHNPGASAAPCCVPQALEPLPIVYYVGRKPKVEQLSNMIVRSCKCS
Protocol: (§1) BIAcore methods are used to determine the ability of invention mAb compositions to bind other entities, specifically the latent form of TGF-beta 1 or TGF-beta 3. All measurements are performed at room temperature. Samples are dissolved in HBS-EP buffer (150 mM sodium chloride, 3 mM EDTA, 0.01% (w/v) surfactant P-20, and 10 mM HEPES, pH7.4). Recombinant Protein A is immobilized on all four flow cells of a CM4 sensor chip at a level of 400-450 response units (RUs) using an amine coupling kit.
(§2) Binding is evaluated using multiple analytical cycles. Each cycle is performed at a flow rate of 100 μL/minute consisting of the following steps: injection of 15 μL of an antibody binding composition at 1 μg/mL, injection of 250 μL of either 5 nM TGF-beta 1, 5 nM latent TGF-beta 1, or 5 nM TGF-beta 3 followed by a short delay (5 min) for dissociation, and regeneration using two injections of 50 μL of 10 mM glycine hydrochloride, pH1.5. The amount of signal after capturing first the Mab, and then the ligand, are determined using the instrument control software. Since the signal is proportional to the mass of protein captured, the stoichiometry of the captured ligand is readily calculable (Table 4).

[6] = molecular target: T1, human TGF-beta 3 (RDI, Cat # RDI-1036/CF) (human); assay: ratio of Biacore Kd for TGF-β3 to Kd for TGF-β1
[7] = molecular target: human TGF-beta 1 (R&D Systems, Cat # 240-B/CF) (human) (UniProt P01137); assay: calculated from KinExA Kd and kon
[8] = molecular target: human TGF-beta 1 (R&D Systems, Cat # 240-B/CF) (human) (UniProt P01137); assay: KinExA 3000, Fab in solution, antigen on beads
[9] = molecular target: human TGF-beta 1 (R&D Systems, Cat # 240-B/CF) (human) (UniProt P01137); assay: KinExA 3000, equilibrium, Fab in solution
[10] = molecular target: T3, human TGF-beta 1 (R&D Systems, Cat # 240-B/CF) (human, UniProt P01137 279-390); assay: Biacore SPR, mAb captured on Protein A, TGF-beta 1 injected
T3 construct: They match K95 and residues 58-61 of mature numbering; also called TGF-β1; mature TGF-β1
Protocol: (§3) Alternate methods of measuring kinetic constants are known, for example: affinity of a binding composition for human TGF-beta 1 (R&D Systems, Cat #240-B/CF), TGF-beta 2 (RDI, Cat # RDI-1035) and TGF-beta 3 (RDI, Cat # RDI-1036/CF) is measured using a BlAcore® 2000 instrument. The BIAcore® utilizes the optical properties of surface plasmon resonance to detect alteration in protein concentration of interacting molecules within a dextran biosensor matrix. Except as noted, all reagents and materials are purchased from BIAcore® AB (Upsala, Sweden). All measurements are performed at room temperature. Samples are dissolved in HBS-EP buffer (150 mM sodium chloride, 3 mM EDTA, 0.01% (w/v) surfactant P-20, and 10 mM HEPES, pH7.4). Recombinant Protein A is immobilized on all four flow cells of a CM4 sensor chip at a level of 400-450 response units (RUs) using an amine coupling kit.
(§4) Binding is evaluated using multiple analytical cycles. Each cycle is performed at a flow rate of 50 μL/minute and consists of the following steps: injection of 12 μL of an antibody binding composition at 0.5 μg/mL, injection of 250 μL of TGF-beta 1 (starting at 5 nM and using two-fold serial dilutions to 0.13 nM for each cycle, with two injections for each concentration) followed by either a short (5 minutes) or long (120 minutes) delay for dissociation, and regeneration using two injections of 50VL of 10 mM glycine hydrochloride, pH1.5. Association and dissociation rates for each cycle are determined by fitting of the biosensor data using to a simple association model using ClampXP (Center for Biomolecular Interaction Analysis, Univ. of Utah) to extract the kₒₙ and koff rate constants; the equilibrium binding constant Kd is calculated using the relationship Kd=koff/kₒₙ. Model data for invention compositions are in Table 3 shown below.

[11] = molecular target: T3, human TGF-beta 1 (R&D Systems, Cat # …); assay: cell-based or functional assay
[12] = molecular target: T4, human TGF-beta 3 (RDI, Cat # RDI-1036/CF) (human, UniProt P10600 301-412); assay: Biacore SPR, mAb captured on Protein A, 5 nM ligand injected; stoichiometry from captured signals
T4 construct: Bought recombinant protein; also called TGF-β3; TGF-p3
T4 sequence (looked up): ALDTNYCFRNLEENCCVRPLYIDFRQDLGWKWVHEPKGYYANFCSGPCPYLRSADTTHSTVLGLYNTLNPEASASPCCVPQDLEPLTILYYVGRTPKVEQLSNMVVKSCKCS
Protocol: as §1, §2

[13] = molecular target: T3, human TGF-beta 1 (R&D Systems, Cat # …); assay: as above
Protocol: as §1, §2

[14] = molecular target: T4, human TGF-beta 3 (RDI, Cat # …); assay: Biacore SPR, equilibrium fit, mAb captured on Protein A, TGF-β3 injected
Protocol: (§5) Affinities of binding composition mAbs for TGF-p3 are determined using BIAcore methods. All measurements are performed at room temperature. Samples are dissolved in HBS-EP buffer (150 mM sodium chloride, 3 mM EDTA, 0.01% (w/v) surfactant P-20, and 10 mM HEPES, pH7.4). Recombinant Protein A is immobilized on four flow cells of a CM4 sensor chip at a level of 400-450 response units (RUs) using an amine coupling kit. Binding is evaluated over multiple analytical cycles. Each cycle is performed at a flow rate of 100 μL/minute consisting of the following steps: injection of 15 μL of an antibody binding composition at 0.5 μg/mL, injection of 250 μL of TGF-β3 (starting at 5 nM and using two-fold serial dilutions to 0.13 nM for each cycle, with two injections for each concentration) followed by a short (5 minutes) delay for dissociation, and regeneration using two injections of 50VL of 10 mM glycine hydrochloride, pH1.5.
(§6) Affinities are determined based upon the equilibrium signal as reached at varying TGF-β3 concentrations by measuring the average signal during the last 10 seconds of the TGF-β3 injections, and then fitting the resulting signals at all of the TGF-β3 concentrations to a simple binding equilibrium model in SCRUBBER (Center for Biomolecular Interaction Analysis, Univ. of Utah). Model data determined for tested human mab composition of the invention of Kd and specificity calculated by dividing the Kd for TGF-β3 binding by the Kd for TGF-β1 binding (herein) is shown below in Table 5.

[15] = molecular target: T4, human TGF-beta 3 (RDI, Cat # …); assay: ratio of Biacore Kd for TGF-β3 to Kd for TGF-β1
Protocol: as §5, §6

[16] = molecular target: T3, human TGF-beta 1 (R&D Systems, Cat # …); assay: Biacore SPR, calculated koff/kon
Protocol: as §3, §4

[17] = molecular target: T5, TGF-beta 1 mutein (R25K, K26R, V33I, P87T, V89L, K95T) (Homo sapiens (Human), UniProt P01137 279-390, Mature TGF-beta 1 is a disulfide-linked homodimer; one monomer chain is given.); assay: laser desorption/ionization time-of-flight MS on chips (Ciphergen)
T5 chain: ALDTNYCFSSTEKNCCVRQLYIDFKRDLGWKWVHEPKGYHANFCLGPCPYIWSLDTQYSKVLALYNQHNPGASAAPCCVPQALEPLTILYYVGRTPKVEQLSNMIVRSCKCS

- Kd [1]: 0.6 pM
- Fold Improvement in IC50 relative to mAb2471 (HT-2 cell proliferation assay) [2]: 401 fold
- Kd [3]: 2.2 nM
- koff [4]: 8e-06 s⁻¹
- kon [4]: 1.3e+07 M⁻¹ s⁻¹
- Stoichiometry of ligand binding [5]: 1.74
- Stoichiometry of ligand binding (latent TGF-beta 1): 0.08
- Specificity (Kd, β3/Kd, β1) [6]: 3670 fold
B1: mAb C27 (antibody, IgG4, V domains shown)
VH: QVQLVQSGAEVKKPGASVKVSCKASGYTFTDYNIHWVRQAPGQGLEWMGYIYPYDGETGYNQKFKSRVTMTTDTSTSTAYMELRSLRSDDTAVYYCARGYRAFEYWGQGTLVTVSS
VL: DIQMTQSPSSLSASVGDRVTITCRASSSVPYMHWYQQKPEKAPKSLIYATSNLAFGVPSRFSGSGSGTDFTLTISSLQPEDFATYYCQQWDLNPPAFGQGTKLEIK

- koff [7]: 1.7e-05 s⁻¹
- kon [8]: 4.1e+06 M⁻¹ s⁻¹
- Kd [9]: 4.2 pM
B2: Fab C27 (Fab, V domains shown)
VH: QVQLVQSGAEVKKPGASVKVSCKASGYTFTDYNIHWVRQAPGQGLEWMGYIYPYDGETGYNQKFKSRVTMTTDTSTSTAYMELRSLRSDDTAVYYCARGYRAFEYWGQGTLVTVSS
VL: DIQMTQSPSSLSASVGDRVTITCRASSSVPYMHWYQQKPEKAPKSLIYATSNLAFGVPSRFSGSGSGTDFTLTISSLQPEDFATYYCQQWDLNPPAFGQGTKLEIK

- koff [10]: < 7e-06 s⁻¹
- kon [10]: 1.3e+07 M⁻¹ s⁻¹
- Fold Improvement in IC50 relative to mAb2471 (HT-2 cell proliferation assay) [11]: 140 fold
- Stoichiometry of ligand binding [12]: 0.54
- Stoichiometry of ligand binding [13]: 1.23
- Stoichiometry of ligand binding (latent TGF-beta 1): 0.04
- Kd [14]: 1.16 nM
- Specificity (Kd, β3/Kd, β1) [15]: 2320 fold
- Kd [16]: < 0.5 pM
B3: mAb DM7 (antibody, IgG4, V domains shown)
VH: QVQLVQSGAEVKKPGASVKVSCKASGYDFTDYNMHWVRQAPGQGLEWMGYIYPYDGETGYNQKFKSRVTMTTDTSTSTAYMELRSLRSDDTAVYYCARGYRWLYYWGQGTLVTVSS
VL: DIQMTQSPSSLSASVGDRVTITCRASSSVSYMHWYQQKPGKAPKPLIYATSNLAKGVPSRFSGSGSGTDFTLTISSLQPEDFATYYCQQWDLNPPAFGQGTKLEIK

B4: mAb 1D11 (R&D Systems) (antibody, V domains shown)
VH: QVQLQQSGPELVRPGASVKLSCKASGYIFITYWMNWVKQRPGQGLEWIGQIFPASGSTNYNEMFEGKATLTVDTSSSTAYMQLSSLTSEDSAVYYCARGDGNYALDAMDYWGQGTSVTVSS
VL: DIVLTQSPASLAVSLGQRATISCRASESVDSYGNSFMHWYQQKSGQPPKLLIYLASNLESGVPARFSGSGSRTDFTLTIDPVEADDAATYYCQQNNEDPLTFGAGTKLEIK
- fold less binding of the TGF-beta 1 mutein relative to wild type TGF-beta 1 [17]: 2.5 fold
